From article PMC9868417, “Functional characterization of a novel aminoglycoside phosphotransferase, APH(9)-Ic, and its variant from Stenotrophomonas maltophilia” (Frontiers in Cellular and Infection Microbiology, 2023)

System: CN[C@@H]1[C@H](O)[C@H](NC)[C@H]2O[C@@]3(O)C(=O)C[C@@H](C)O[C@H]3O[C@@H]2[C@H]1O
Assay: purified protein
Format: biochemical, Stenotrophomonas maltophilia
Details: 2 mM ATP, 10 mM MgCl2, 20 mM KCl, 100 mM HEPES pH 7.0, 37 °C

Work on “APH(9)-Ic (Stenotrophomonas maltophilia K279a)” yielded a Km of 31 ± 5 µM and a kcat of 1.09 ± 0.09 s⁻¹.
